B1: TGN1412 IgG4 (antibody, V domains shown)
VH: QVQLVQSGAEVKKPGASVKVSCKASGYTFTSYYIHWVRQAPGQGLEWIGCIYPGNVNTNYNEKFKDRATLTVDTSISTAYMELSRLRSDDTAVYFCTRSHYGLDWNFDVWGQGTTVTVSS
VL: not shown
notes: U.S. Pat. No. 8,709,414'; also called TGN1412 antibody in IgG4 format
B2: AE2P antibody in IgG4 format (antibody, V domains shown)
VH: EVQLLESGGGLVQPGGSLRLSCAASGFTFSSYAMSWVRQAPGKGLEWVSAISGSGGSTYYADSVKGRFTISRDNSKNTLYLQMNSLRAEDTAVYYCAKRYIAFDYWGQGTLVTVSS
VL: DIQMTQSPSSLSASVGDRVTITCRASQSISSYLNWYQQKPGKAPKLLIYAASSLQSGVPSRFSGSGSGTDFTLTISSLQPEDFATYYCQQGGMPPDTFGQGTKVEIKR
notes: unconjugated in flow cytometry; also called AE2P IgG4; IgG4 (AE2P)
B3: anti-human CEA IgG/AE2P (scFv)2 bispecific antibody in IgG-(scFv)2 (2+2) format (format 1, FIG. 13) (bispecific antibody)
heavy: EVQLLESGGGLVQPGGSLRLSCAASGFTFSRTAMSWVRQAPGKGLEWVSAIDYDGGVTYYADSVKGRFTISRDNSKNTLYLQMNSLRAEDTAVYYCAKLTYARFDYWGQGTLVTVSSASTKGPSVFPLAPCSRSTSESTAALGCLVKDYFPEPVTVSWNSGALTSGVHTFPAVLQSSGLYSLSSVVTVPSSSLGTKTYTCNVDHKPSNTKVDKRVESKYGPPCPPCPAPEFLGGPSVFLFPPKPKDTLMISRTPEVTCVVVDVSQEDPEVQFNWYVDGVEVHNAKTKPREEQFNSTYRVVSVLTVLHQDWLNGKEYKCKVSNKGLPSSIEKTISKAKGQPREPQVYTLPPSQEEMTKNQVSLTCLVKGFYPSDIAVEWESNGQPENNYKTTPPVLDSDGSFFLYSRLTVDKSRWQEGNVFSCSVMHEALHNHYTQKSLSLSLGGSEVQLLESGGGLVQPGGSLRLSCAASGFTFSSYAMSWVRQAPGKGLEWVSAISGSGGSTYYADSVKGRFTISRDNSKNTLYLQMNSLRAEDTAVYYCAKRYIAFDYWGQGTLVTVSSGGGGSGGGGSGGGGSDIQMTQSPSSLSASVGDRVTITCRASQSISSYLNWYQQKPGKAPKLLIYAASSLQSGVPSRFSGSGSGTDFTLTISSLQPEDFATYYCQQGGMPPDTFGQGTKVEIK
light: EIVLTQSPGTLSLSPGERATLSCRASQSVSQNHLAWYQQKPGQAPRLLIYLASRRHTGIPDRFSGSGSGTDFTLTISRLEPEDFAVYYCQQSGRVPWTFGQGTKVEIKRTVAAPSVFIFPPSDEQLKSGTASVVCLLNNFYPREAKVQWKVDNALQSGNSQESVTEQDSKDSTYSLSSTLTLSKADYEKHKVYACEVTHQGLSSPVTKSFNRGEC
notes: also called anti-human CEA IgG/anti-CD28 (scFv)2 bispecific antibody

How the values were obtained:
[1] = biological target: T1, murine CD28 on the surface of primary mouse T cells (mouse, UniProt P31041 20-218); assay: flow cytometry on primary mouse T cells
T1 construct: whole, on cells
Method: Cells were first blocked for 30 minutes in FACS buffer (PBS, 2% FBS and 2 mM EDTA). […] Zombie NIR was used to discriminate live from dead cells.

[2] = biological target: T2, human CTLA-4 protein containing His6 Tag (SinoBiological, Cat: 11159-H08H) (human, UniProt P16410 36-162); assay: titration ELISA, His6-tagged human CTLA-4 on NiNTA plates, FITC-conjugated antibody
T2 construct: Bought protein

[3] = biological target: T3, murine CD28 Fc (mouse, UniProt P31041 20-150); assay: titration ELISA, His6-tagged CD28-ECD on NiNTA plates, FITC-conjugated antibody
T3 construct: also called murine CD28 ECD; mouse CD28 Fc; not shown: His6 tag and Fc part of the murine construct

[4] = biological target: T4, human CD28 expressed on primary human T cells (human, UniProt P10747 19-220); assay: flow cytometry on primary human T cells, 50 nM antibody
T4 construct: whole, on cells; also called primary human T cells expressing CD28
Method: Cells were first blocked for 30 minutes in FACS buffer (PBS, 2% FBS and 2 mM EDTA). […] Zombie near infrared (NIR) was used to discriminate live from dead cells.

[5] = biological target: T1, murine CD28 on the surface of primary …; assay: flow cytometry on primary mouse T cells, 50 nM antibody
[6] = biological target: T5, human CD28-ECD (extracellular domain) recombinant fragment containing a C-terminal Avi tag, His6 tag and Fc … (human, site specifically biotinylated using BirA (Avi tag) in the ELISA of Example 2.1); assay: titration ELISA
T5 construct: also called CD28-Fc; CD28-Fc fusion protein
T5 sequence (chain, as listed by the source limits assumed): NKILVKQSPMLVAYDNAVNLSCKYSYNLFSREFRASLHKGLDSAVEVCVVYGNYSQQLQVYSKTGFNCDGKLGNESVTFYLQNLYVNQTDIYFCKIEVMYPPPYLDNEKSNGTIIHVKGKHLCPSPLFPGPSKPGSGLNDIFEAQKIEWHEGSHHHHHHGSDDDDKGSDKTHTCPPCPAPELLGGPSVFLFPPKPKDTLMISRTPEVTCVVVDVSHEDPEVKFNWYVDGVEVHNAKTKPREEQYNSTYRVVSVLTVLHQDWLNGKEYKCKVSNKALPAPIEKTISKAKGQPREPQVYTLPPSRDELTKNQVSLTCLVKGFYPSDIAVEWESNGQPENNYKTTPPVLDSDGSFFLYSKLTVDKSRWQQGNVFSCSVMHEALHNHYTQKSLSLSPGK

Binder	binding result [1]	binding result [2]	binding result [3]	binding result [4]	binding result [5]	binding result [6]
B1	no binding (tested: 50 nM)	no binding	no binding	–	–	–
B2	–	binds	binds	binds	binds	binds
B3	–	–	–	–	binds	–

— patent US20250368738A1 (PHILOGEN S P A, published 2025)
